From US20220363757A1 (SYMPHOGEN A S, published 2022)
Each block holds one binder with its values, some of them ahead of it.

How the values were obtained:
Experiment in all cases: SPR, Fab over captured mutant LAG-3-Fc;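 further: fc fusion variants captured on anti-human IgG Fc sensor, Fab injected with association then dissociation phases, KD obtained from Langmuir one-to-one fit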
[1] = target: T1, human LAG-3 domain 1-2 Fc fusion, point mutation #45 R98A (human, UniProt P18627 23-266)
T1 construct: not shown: human IgG1 Fc, AA P101-K330
T1 sequence: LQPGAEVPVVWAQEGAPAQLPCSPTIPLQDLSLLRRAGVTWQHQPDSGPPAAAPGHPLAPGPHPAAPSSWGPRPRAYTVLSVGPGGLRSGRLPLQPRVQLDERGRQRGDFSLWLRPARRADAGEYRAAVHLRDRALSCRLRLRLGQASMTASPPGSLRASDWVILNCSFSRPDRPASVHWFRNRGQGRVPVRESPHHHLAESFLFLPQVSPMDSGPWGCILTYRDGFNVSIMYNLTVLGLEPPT

[2] = target: T2, human LAG-3 domain 1-2 Fc fusion, point mutation #6 T47A (human, UniProt P18627 23-266)
T2 construct: not shown: human IgG1 Fc, AA P101-K330
T2 sequence: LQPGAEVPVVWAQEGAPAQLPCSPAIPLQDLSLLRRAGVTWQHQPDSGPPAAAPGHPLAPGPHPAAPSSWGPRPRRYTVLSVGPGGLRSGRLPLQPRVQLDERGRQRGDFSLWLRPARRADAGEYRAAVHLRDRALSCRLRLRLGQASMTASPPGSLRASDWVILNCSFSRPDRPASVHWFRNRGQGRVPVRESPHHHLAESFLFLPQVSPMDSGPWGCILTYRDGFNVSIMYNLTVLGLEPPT

[3] = target: T3, human LAG-3 domain 1-2 Fc fusion, point mutation #10 S54A (human, UniProt P18627 23-266)
T3 construct: not shown: human IgG1 Fc, AA P101-K330
T3 sequence: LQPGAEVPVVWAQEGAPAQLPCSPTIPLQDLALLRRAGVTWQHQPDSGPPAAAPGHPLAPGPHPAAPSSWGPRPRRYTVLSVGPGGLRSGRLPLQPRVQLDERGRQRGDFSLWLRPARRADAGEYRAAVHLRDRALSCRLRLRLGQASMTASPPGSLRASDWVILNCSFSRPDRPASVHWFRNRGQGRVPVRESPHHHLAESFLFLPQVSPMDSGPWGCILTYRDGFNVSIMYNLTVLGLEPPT

[4] = target: T4, human LAG-3 domain 1-2 Fc fusion, point mutation #53 L109A (human, UniProt P18627 23-266)
T4 construct: not shown: human IgG1 Fc, AA P101-K330
T4 sequence: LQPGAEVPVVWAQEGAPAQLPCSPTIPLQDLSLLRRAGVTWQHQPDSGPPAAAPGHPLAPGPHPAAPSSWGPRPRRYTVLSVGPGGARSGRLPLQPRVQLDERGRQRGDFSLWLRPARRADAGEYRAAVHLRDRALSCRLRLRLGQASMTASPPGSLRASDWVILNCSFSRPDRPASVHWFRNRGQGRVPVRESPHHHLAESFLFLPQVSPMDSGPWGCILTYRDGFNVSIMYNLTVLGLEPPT

[5] = target: T5, human LAG-3 domain 1-2 Fc fusion, point mutation #55 S111A (human, UniProt P18627 23-266)
T5 construct: not shown: human IgG1 Fc, AA P101-K330
T5 sequence: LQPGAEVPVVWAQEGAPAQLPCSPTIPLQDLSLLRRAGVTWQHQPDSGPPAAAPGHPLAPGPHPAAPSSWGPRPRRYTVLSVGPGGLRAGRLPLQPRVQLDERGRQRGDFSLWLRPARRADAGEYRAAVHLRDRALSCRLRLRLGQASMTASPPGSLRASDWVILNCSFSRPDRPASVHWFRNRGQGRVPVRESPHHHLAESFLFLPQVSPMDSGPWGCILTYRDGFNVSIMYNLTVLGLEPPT

[6] = target: T6, human LAG-3 domain 1-2 Fc fusion, point mutation #28 A81S (human, UniProt P18627 23-266)
T6 construct: not shown: human IgG1 Fc, AA P101-K330
T6 sequence: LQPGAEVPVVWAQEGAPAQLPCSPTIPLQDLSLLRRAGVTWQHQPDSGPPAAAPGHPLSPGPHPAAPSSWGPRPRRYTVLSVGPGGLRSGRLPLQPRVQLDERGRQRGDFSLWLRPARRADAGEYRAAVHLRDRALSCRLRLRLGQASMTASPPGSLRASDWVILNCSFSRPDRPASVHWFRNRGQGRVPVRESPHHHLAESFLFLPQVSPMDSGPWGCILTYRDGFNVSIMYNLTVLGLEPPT

[7] = target: T7, human LAG-3 domain 1-2 Fc fusion, point mutation #14 T62A (human, UniProt P18627 23-266)
T7 construct: not shown: human IgG1 Fc, AA P101-K330
T7 sequence: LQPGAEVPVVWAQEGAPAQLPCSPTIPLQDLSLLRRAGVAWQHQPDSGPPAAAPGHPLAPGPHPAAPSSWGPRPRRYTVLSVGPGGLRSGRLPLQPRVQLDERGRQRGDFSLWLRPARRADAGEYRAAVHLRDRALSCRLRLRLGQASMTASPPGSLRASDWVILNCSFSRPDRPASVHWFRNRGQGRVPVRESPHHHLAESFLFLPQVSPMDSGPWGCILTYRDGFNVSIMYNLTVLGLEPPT

[8] = target: T8, human LAG-3 domain 1-2 Fc fusion, point mutation #22 A75S (human, UniProt P18627 23-266)
T8 construct: not shown: human IgG1 Fc, AA P101-K330
T8 sequence: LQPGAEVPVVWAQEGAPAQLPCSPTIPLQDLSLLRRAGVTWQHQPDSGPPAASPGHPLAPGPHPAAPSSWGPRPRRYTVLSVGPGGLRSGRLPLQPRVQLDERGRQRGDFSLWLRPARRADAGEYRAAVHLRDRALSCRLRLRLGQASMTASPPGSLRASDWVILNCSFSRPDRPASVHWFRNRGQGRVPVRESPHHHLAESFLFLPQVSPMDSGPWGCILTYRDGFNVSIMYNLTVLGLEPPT

[9] = target: T9, human LAG-3 domain 1-2 Fc fusion, point mutation #7 P49A (human, UniProt P18627 23-266)
T9 construct: not shown: human IgG1 Fc, AA P101-K330
T9 sequence: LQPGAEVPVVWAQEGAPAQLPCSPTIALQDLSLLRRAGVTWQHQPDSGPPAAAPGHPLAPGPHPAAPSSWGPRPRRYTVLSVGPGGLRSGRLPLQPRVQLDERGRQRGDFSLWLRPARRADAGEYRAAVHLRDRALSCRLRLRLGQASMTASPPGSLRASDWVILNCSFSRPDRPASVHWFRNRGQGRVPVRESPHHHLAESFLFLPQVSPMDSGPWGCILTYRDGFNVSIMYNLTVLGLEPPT

B1: Fab fragment of antibody 15532 (Fab, V domains shown, not shown: a dimerising Fc or GST)
VH: QVQLQQWGAGLLRPSETLSLTCAVYGESFSGYYWNWIRQPPGKGLEWIGEINHSGSTNYNPSLKSRVTISVDTSKTQFSLKLSSVTAADTAVYYCARGWDLLDWNDYWNEYWGQGTLVTVSS
VL: EIVLTQSPATLSLSPGERATLSCRASQSVSSYLAWYQQKPGQAPRLLIYDASNRATGIPARFSGSGSGTDFTLTISSLEPEDFAVYYCQQRSNWPLTFGGGTKVEIKR
notes: monomeric Fab made by GingisKHAN digestion of the IgG1
KD mutant/KD wild type [1]: 1.6 fold
KD mutant/KD wild type [2]: 1.5 fold
KD mutant/KD wild type [3]: 0.7 fold
KD mutant/KD wild type [4]: 1.1 fold
KD mutant/KD wild type [5]: 1 fold
KD mutant/KD wild type [6]: 0.6 fold
KD mutant/KD wild type [7]: 4.2 fold
KD mutant/KD wild type [8]: 0.9 fold
KD mutant/KD wild type [9]: 1.7 fold

B2: Fab fragment of antibody 15011 (Fab, V domains shown, not shown: a dimerising Fc or GST)
VH: EVQLLESGGGLVQPGGSLRLSCAASGFDFRSYAMMWVRQAPGKGLEWVGGINGEVGGSNTYYAPAVKGRATISRDNSKNTLYLQMNSLRAEDTAVYYCVKGAGACGICNDDIDAWGQGTLVTVSS
VL: SYELTQDPAVSVALGQTVRITCSGAGSYAGSYYYGWHQQKPGQAPVTVIYDNDKRPSNIPDRFSGSSSGNTASLTITGAQAEDEADYYCGSTNDNDDGGLFGSGTKVTVLG
notes: as for B1
KD mutant/KD wild type [1]: 1.2 fold
KD mutant/KD wild type [2]: 0.9 fold
KD mutant/KD wild type [3]: 0.8 fold
KD mutant/KD wild type [4]: 84.2 fold
KD mutant/KD wild type [5]: 53.4 fold
KD mutant/KD wild type [6]: 0.8 fold
KD mutant/KD wild type [7]: 0.6 fold
KD mutant/KD wild type [8]: 0.8 fold
KD mutant/KD wild type [9]: 0.8 fold

Second part, the binder after the results:

binding result [1]: no binding (tested: 300 nM)
KD mutant/KD wild type [2]: 0.9 fold
KD mutant/KD wild type [3]: 0.5 fold
KD mutant/KD wild type [4]: 1 fold
KD mutant/KD wild type [5]: 0.8 fold
KD mutant/KD wild type [6]: 0.6 fold
binding result [7]: no binding (tested: 300 nM)
KD mutant/KD wild type [8]: 0.8 fold
binding result [9]: no binding (tested: 300 nM)
B3: Fab fragment of antibody 15431 (Fab, V domains shown, not shown: a dimerising Fc or GST)
VH: QVQLQQSGPGLVKPSQTLSLTCAISGDSVSSNSAAWNWIRQSPSRGLEWLGRTYYRSKWYNDYAVSVKSRITINPDTSKNQFSLQLNSVTPEDTAVYYCARDDDWNDFDYWGQGTLVTVSS
VL: EIVLTQSPATLSLSPGERATLSCRASQSVSSYLAWYQQKPGQAPRLLIYDASNRATGIPARFSGSGSGTDFTLTISSLEPEDFAVYYCQQRSNWPLTFGGGTKVEIKR
notes: as for B1

KD mutant/KD wild type [1]: 0.9 fold
KD mutant/KD wild type [2]: 0.6 fold
KD mutant/KD wild type [3]: 0.7 fold
KD mutant/KD wild type [4]: 1 fold
KD mutant/KD wild type [5]: 0.7 fold
KD mutant/KD wild type [6]: 0.6 fold
binding result [7]: no binding (tested: 300 nM)
KD mutant/KD wild type [8]: 0.7 fold
binding result [9]: no binding (tested: 300 nM)
B4: Fab fragment of antibody 15572 (Fab, V domains shown, not shown: a dimerising Fc or GST)
VH: QLQLQESGPGLVKPSETLSLTCTVSGDSISSSSYYWGWIRQPPGKGLEWIGSIFYSGNTYYNPSLKSRVTISVDTSKNQFSLKLSSVTAADTAVYYCAREDDFLTDYYGAFDIWGQGTMVTVSS
VL: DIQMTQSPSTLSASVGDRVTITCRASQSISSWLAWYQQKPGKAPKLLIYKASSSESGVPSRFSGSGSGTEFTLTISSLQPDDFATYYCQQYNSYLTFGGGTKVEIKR
notes: as for B1
